Source: patent US10758615B2, “Human monoclonal antibodies against orexin receptor type 1” (INSERM (INSTITUT NATIONAL DE LA SANTE ET DE LA RECHERCHE …, priority 2015, dated 2020)

What was measured:
[1] = test system: HT-29 cells; test: Growth of tumors from xenografted human HT-29 cells in nude mice; assay type: in vivo; conditions: ip, 2 injections/week, Day 43
Description: FIG. 8: Effect of inoculation of orexin-A and C2 antibody on the growth of tumors developed by xenografted human HT-29 cells in nude mice. Colon adenocarcinoma derived cells, HT-29, were inoculated in the flank of nude mice at day 0. Mice were injected at day 1 (2 injections/week) intraperitoneally with 100 μl of orexin-A solution (1.4 μmoles of orexin-A/Kg (white circles)) or with 100 μl of C2 antibody solution (0.065 μmoles/Kg (black triangles) or 0.02 μmoles/Kg (white triangles)) or with 100 μl of PBS (black circles) for control. The inventors have tested the ability of C2 antibody to inhibit the tumor development of xenografted nude mice with the human colon adenocarcinoma cell line, HT-29. After subcutaneous injection of 1.5×10^6 HT-29 cells in mice, animals were treated by 2 intraperitoneal (ip) injection/week of Orexin-A (100 μg/injection corresponding to 1.4 μmoles of orexin-A/Kg) or two doses of C2 antibody (200 μg/injection or 50 μg/injection corresponding to 0.065 μmoles/Kg and 0.02 μmoles/Kg, respectively). Control was determined by ip injection of 100 μl of PBS. The experiment was conducted during 45 days and the tumor volume was estimated by measuring the short and long axes of developedtumors each ⅔ days.

[2] = test system: HEK-OX1R cells expressing recombinant OX1R; test: Apoptosis in HEK-OX1R cells (annexin V-PE binding, Guava nexin kit); assay type: cell-based, human
[3] = test system: CHO cells lines transfected with OX1R of mouse; test: Cross-reaction: cells transfected with mouse OX1R; assay type: cell-based; conditions: 0.1 μM, 48 h
[4] = test system: CHO cells lines transfected with OX1R of rat; test: Cross-reaction: cells transfected with rat OX1R; assay type: cell-based; conditions: 0.1 μM, 48 h
[5] = test system: LoVo cells; test: Cell growth of colon cancer cell line LoVo; assay type: cell-based; conditions: 0.1 μM, 48 h
Description: (§1) Cells were treated for 48 h with 0.1 μM of each compound and then cells were counted. Results were expressed as the percentage of untreated cell number (Control).
(§2) We have tested the ability of antibodies to inhibit the cellular growth in cancer cell lines derived from colon cancer (SW48, LoVo and HCT-116 cells) and pancreas cancer (AsPC-1 cells). […] D4 and H7 have a weak effect. […] As previously described (see above) orexins are able to induce a mitochondrial apoptosis in cancer cell lines. We test the ability of antibodies to induce apoptosis in HEK-OX1R cells and colonic cancer cell line LoVo. […] This effect was dose-dependent. Indeed when HEK-OX1R cells were treated with 0.01 μM of C2 antibody, cell apoptosis was only of 6±0.7% of total cells.

[6] = test system: AsPC-1 cells; test: Cell growth of pancreas cancer cell line AsPC-1; assay type: cell-based; conditions: 0.1 μM, 48 h
Description: as §1, §2

[7] = test system: HEK-OX1R cells expressing recombinant OX1R; test: Cell growth of HEK-OX1R cells (cell counting); assay type: cell-based, human; conditions: 0.1 μM, 48 h
[8] = test system: SW48 cells; test: Cell growth of colon cancer cell line SW48; assay type: cell-based; conditions: 0.1 μM, 48 h
Description: as §1, §2

[9] = test system: LoVo cancer cell line; test: Apoptosis in LoVo cancer cell line; assay type: cell-based
From the text: as §2

[10] = 100 μg/injection (1.4 μmoles/Kg)
[11] = 200 μg/injection (0.065 μmoles/Kg)
[12] = low dose, 50 μg/injection (0.02 μmoles/Kg)

In the case of “Orexin-A (QPLPDCCRQKTCSCRLYELLHGAGNHAAGILTL) [orexin A, a 33 amino acid neuropeptide, native OX1R ligand, reference compound]”, the “inhibition of tumor growth” value [1, 10] is reported as “about 65%” and the tumor volume [1, 10] is reported as ~570±100 mm^3.

With `O=S(=O)(O)c1ccc2cc(N=Nc3cc(S(=O)(=O)O)c4cccnc4c3O)ccc2c1` [NSC-87877, reference compound] the “effect of SHP-2 inhibitor on orexin-induced apoptosis” value ([2]; NSC-87877 50 μM) was “blocks orexin-induced apoptosis”.

B1: C2: human monoclonal anti-OX1R antibody from phage display; VH SEQ ID NO:1, VL SEQ ID NO:2 (antibody, V domains shown)
VH: EVQLVESGGSLVKPGGSLRLSCAASGFTFSNSYMNWVRQAPGKGLEWISSIYGSSRYIDYADFVKGRFTISRDNATNSLYLQMNSLRAEDTAVYYCVRSSSYYGSGMDVWGRGTLVTVSS
VL: QSVLTQPASVSGSPGQSITISCAGTSSDVGGYGSVSWYQQHPGKAPKLMIYYDSYRPSGVSNRFSGSKSGNTASLTISGLQAEDEADYYCSSNTNSSTRVFGGGTKLAVLG
modifications: Synthetic VH sequence of C2; Synthetic VL sequence of C2
In the case of B1, the “promotion of apoptosis of cells transfected with mouse OX1R” value [3] is reported as “able to promote apotosis”, the “reduction of tumor development” value [1, 11] is reported as “about 60%” and the tumor volume [1, 11] is reported as ~650±98 mm^3. The “inhibition of tumor growth” value [1, 12] was 45%, the tumor volume [1, 12] was ~885±130 mm^3 and the “promotion of apoptosis of cells transfected with rat OX1R” value [4] was “able to promote apotosis”. The “inhibition of cell growth in LoVo cells” value [5] was “inhibit the cell growth in LoVo cells similarly to OxB”, the “inhibition of cell growth in AsPC-1 cells” value [6] was “cell growth inhibition similar to OxB effect” and the “reduction of HEK-OX1R cell number” value ([7]; versus untreated cells) was ~37±3%. The “inhibition of HEK-OX1R cellular growth in the presence of SHP inhibitor” value ([7]; with 50 μM NSC 87877) was “totally reversed”, the “inhibition of cell growth in SW48 cells” value [8] was “inhibit the cell growth in SW48 cells similarly to OxB” and the “apoptotic response in LoVo cancer cell line” value ([9]; 0.01 μM) was “strongly reduce the apoptotic response”. For the same molecule, the “induction of apoptosis in LoVo cancer cell line” value ([9]; 0.1 μM, 48 h) was “able to induce apoptosis”, the “apoptosis in HEK-OX1R cells, % of total cells” value ([2]; 0.01 μM) was 6±0.7% and the “apoptosis in HEK-OX1R cells, % of total cells” value ([2]; 0.1 μM, 48 h) was 16±2%. For the same molecule, the “apoptosis and growth inhibition in the presence of SHP inhibitor” value ([2]; with NSC 87877) was “totally abolished”.
